# Data as given in patent US10766952B2, “Methods for reducing migraine frequency in a subject in need thereof” (Beth Israel Deaconess Medical Center, Inc., priority 2017, dated 2020).
# Numbering of substitutions follows the chain as printed. Numbers in names are those of the source.
# T1: human α-CGRP (Homo sapiens, UniProt P06881)
# T1 construct: 1-37 (WT); purchased; host or cells: synthetic peptide
# T1 sequence (P06881 83-119 limits assumed): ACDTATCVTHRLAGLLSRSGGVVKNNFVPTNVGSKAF
# T2: rat α-CGRP (Rattus norvegicus, UniProt P01256)
# T2 construct: rat α (1-37); host or cells: synthetic peptide
# T2 sequence (P01256 83-119 limits assumed): T1 sequence (P06881 83-119 limits assumed) with A1S, D3N, N25D, K35E
# B1: M28: G1 variant: L1 R28N,T30D; H2 E54R,A57N; HC-FW3 L99T,A100V (antibody, V domains shown)
# VH: EVQLVESGGGLVQPGGSLRLSCAASGFTFSNYWISWVRQAPGKGLEWVAEIRSRSDNSATHYAEAVKGRFTISRDNAKNSLYLQMNSLRAEDTAVYYCTVYFDYGLAIQNYWGQGTLVTVSS
# VL: EIVLTQSPATLSLSPGERATLSCKASKNVDTYVSWYQQKPGQAPRLLIYGASNRYLGIPARFSGSGSGTDFTLTISSLEPEDFAVYYCSQSYNYPYTFGQGTKLEIK
# B2: M38: G1 variant: L1 R28N,T30W; HC-FW3 L99T,A100V (antibody, V domains shown)
# VH: B1 VH with R54E, N57A
# VL: B1 VL with D30W
# B3: M36: G1 variant: L1 R28N,T30R; HC-FW3 L99T,A100V (antibody, V domains shown)
# VH: B1 VH with R54E, N57A
# VL: B1 VL with D30R
# B4: M32: G1 variant: L1 R28N,T30G; H2 E54K,A57H; HC-FW3 L99T,A100V (antibody, V domains shown)
# VH: B1 VH with R54K, N57H
# VL: B1 VL with D30G
# B5: M34: G1 variant: L1 R28N,T30G; H2 E54K,A57N,S58T; HC-FW3 L99T,A100V (antibody, V domains shown)
# VH: B1 VH with R54K, S58T
# VL: B1 VL with D30G
# B6: M35: G1 variant: L1 R28N,T30G; H2 E54K,A57S; HC-FW3 L99T,A100V (antibody, V domains shown)
# VH: B1 VH with R54K, N57S
# VL: B1 VL with D30G
# B7: M31: G1 variant: L1 R28N,T30G; H2 E54K,A57G; HC-FW3 L99T,A100V (antibody, V domains shown)
# VH: B1 VH with R54K, N57G
# VL: B1 VL with D30G
# B8: M33: G1 variant: L1 R28N,T30G; H2 E54K,A57N,S58G; HC-FW3 L99T,A100V (antibody, V domains shown)
# VH: B1 VH with R54K, S58G
# VL: B1 VL with D30G
# B9: M30: G1 variant: L1 R28N,T30G; H2 E54K,A57E; HC-FW3 L99T,A100V (antibody, V domains shown)
# VH: B1 VH with R54K, N57E
# VL: B1 VL with D30G
# B10: M37: G1 variant: L1 R28N,T30S; H2 A57G; HC-FW3 L99T,A100V (antibody, V domains shown)
# VH: B1 VH with R54E, N57G
# VL: B1 VL with D30S
# B11: M29: G1 variant: L1 R28N,T30G; HC-FW3 L99T,A100V (antibody, V domains shown)
# VH: B1 VH with R54E, N57A
# VL: B1 VL with D30G
# Target: T1, human α-CGRP
# Assay: Biacore affinity of antibody G1 Fab and variants to human α-CGRP
# Assay type: binding
# Conditions: 37° C., Fab, screening mode unless underlined
# Method in brief: (§1)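 Fab fragments flowed over N-biotinylated CGRP captured on SA chip in HBS-EP pH 7.4; titration series fit globally to 1:1 Langmuir model, KD = koff/kon. For very slow off-rates, kon from 550 nM–1 nM series with 30 s dissociation, koff from 2-hour dissociation.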
row,α-human koff [s⁻¹],Molecule
1,9.96e-05,B1
2,0.000218,B2
3,0.000239,B3
4,0.000271,B4
5,0.000646,B5
6,0.000339,B6
7,0.000347,B7
8,0.00075,B8
9,0.00059,B9
10,0.000226,B10
11,0.00038,B11

# Target: T2, rat α-CGRP
# Assay: Biacore affinity of antibody G1 Fab and variants to rat α-CGRP
# Assay type: binding
# Conditions: 37° C., Fab, screening mode unless underlined
# Method in brief: as §1
row,α-rat koff [s⁻¹],Molecule
1,0.00125,B1
2,0.00511,B2
3,0.00479,B3
4,0.00296,B4
5,0.00217,B5
6,0.00399,B6
7,0.00361,B7
8,0.00922,B8
9,0.00638,B9
10,0.00145,B10
11,0.00359,B11
